# Biological target: heavy mero-myosin (HMM) (rabbit)
row,Substance,"unregulated myosin ATPase: KM for ACTC protein, 2 mM ATP [µM]"
1,R312C cardiac actin variant (R312C-ACTC) (natural protein),16.6
2,R312H cardiac actin variant (R312H-ACTC) (natural protein),24.8
3,wildtype cardiac actin (WT-ACTC) (from UniProt P68032 1-377) (natural protein),5.63

# Reference: paper PMC11708414
